Consider 27 sequences from the Immune Epitope Database (IEDB).

Assay [1] addresses HLA-A*03:01. Briefly: IEDB peptide-MHC binding, purified MHC/competitive/fluorescence; filed as Kd, often an IC50 or EC50 that approximates it; ≥ and ≤ were set here for values at or beyond the usual limits of such assays.
In assay [2] the target is HLA-B*08:01. Briefly: IEDB peptide-MHC binding, purified MHC/competitive/radioactivity; filed as Kd, often an IC50 or EC50 that approximates it; ≥ and ≤ were set here for values at or beyond the usual limits of such assays.
The target of the next assay is HLA-A*02:02. Described as above.
The target of a further assay is HLA-A*68:02. Described as above.
The target in a further assay is HLA-A*02:01. Described as above.
The next assay addresses HLA-A*02:06. The assay is described as above.
The target in a further assay is HLA-B*51:01. Put plainly: IEDB peptide-MHC binding, purified MHC/competitive/fluorescence; filed as Kd, often an IC50 or EC50 that approximates it; ≥ and ≤ were set here for values at or beyond the usual limits of such assays. Particulars: source organism: Yersinia pestis Nepal516.
The next assay addresses HLA-B*07:02. Briefly: IEDB peptide-MHC binding, purified MHC/direct/fluorescence; filed as Kd, often an IC50 or EC50 that approximates it; ≥ and ≤ were set here for values at or beyond the usual limits of such assays. The following applies: source organism: SARS-CoV1.
For assay [3], the target named is HLA-B*08:01. Described as above. The following applies: source organism: SARS-CoV1.
Assay [4] has as its target HLA-A*11:01. The assay is described as above. The following applies: source organism: SARS-CoV1.
Assay [5] concerns the target HLA-A*11:01. Put plainly: IEDB peptide-MHC binding, purified MHC/competitive/fluorescence; ≥ and ≤ were set here for values at or beyond the usual limits of such assays. Particulars: source organism: Sudan ebolavirus.
In a further assay the target is HLA-B*15:01. Briefly: IEDB peptide-MHC binding, purified MHC/competitive/fluorescence; filed as Kd, often an IC50 or EC50 that approximates it; ≥ and ≤ were set here for values at or beyond the usual limits of such assays. The following applies: source organism: Escherichia coli F11.
In another assay the target is HLA-A*31:01. Put plainly: IEDB peptide-MHC binding, purified MHC/competitive/radioactivity; filed as Kd, often an IC50 or EC50 that approximates it; ≥ and ≤ were set here for values at or beyond the usual limits of such assays. Particulars: source organism: Dengue virus 2 Peru/IQT2913/1996.
The target in another assay is HLA-A*33:01. The description is as above. Particulars: source organism: Dengue virus 2 Peru/IQT2913/1996.
The target in assay [6] is HLA-A*03:01. The description is as above. Particulars: source organism: Dengue virus 2 Peru/IQT2913/1996.
Another assay addresses HLA-A*68:01. The assay is described as above. Particulars: source organism: Dengue virus 2 Peru/IQT2913/1996.
A further assay addresses HLA-A*02:03. The assay is described as above. Particulars: source organism: Trypanosoma cruzi.
Where [7] appears, read: source organism: Vaccinia virus WR.
The mark [8] stands for this setting: source organism: Dengue virus 2 Jamaica/1409/1983.
Where [9] appears, read: source organism: Dengue virus 3 Martinique/1243/1999.
The mark [10] stands for this setting: source organism: Dengue virus 1 Brazil/97-11/1997.
Setting [11] is: source organism: Trypanosoma cruzi.
[12] abbreviates: source organism: Dengue virus 4 Philippines/H241/1956.

Regarding KDAWLSLPK, the dissociation constant Kd – broadly, the constant that tells how readily two partners part at equilibrium – with HLA-A*03:01 [1] (source organism: Vibrio cholerae) was at least 20000 nM.

For YSFSMFMSL, the equilibrium dissociation constant (Kd) with HLA-B*08:01 [2] (setting [7]) is 146 nM.

For the sequence ELQAALARV, the dissociation constant (Kd) in the assay with HLA-A*02:02 (source organism: Homo sapiens) came to 117 nM; with HLA-A*68:02 (source organism: Homo sapiens) it was 2.06 nM; in the assay with HLA-A*02:01 (source organism: Homo sapiens), 558 nM; in the assay with HLA-A*02:06 (source organism: Homo sapiens) it was 40.5 nM.

On to EAAGIFMTA, for which, in the assay with HLA-A*68:02 (setting [8]), the Kd was found to be 0.37 nM.

As to EVSETQHGTI, the Kd with HLA-A*68:02 (setting [9]) is 193 nM.

Take MTYLPAWQV: the Kd with HLA-B*51:01 was at least 20000 nM.

As for NKKRFFSDV, the equilibrium dissociation constant (Kd) with HLA-B*08:01 [2] (setting [7]) came out at 8720 nM.

In the case of QLKDKADFCI, the results for the Kd with HLA-A*68:02 (source organism: Homo sapiens) and in the assay with HLA-A*02:06 (source organism: Homo sapiens) were 13400 nM and at least 32100 nM, respectively.

As to NPKTPKYKF, the Kd was at least 28600 nM in the assay with HLA-B*07:02, 1150 nM in the assay with HLA-B*08:01 [3] and 3960 nM with HLA-A*11:01 [4].

As for IKLTVVVGDI, the Kd in the assay with HLA-B*08:01 [2] (setting [9]) was determined as 1050 nM.

In the case of LLILCVTQVL, the equilibrium dissociation constant (Kd) in the assay with HLA-B*08:01 [2] (setting [8]) is 979 nM.

With FTVIALFLA, the values for the Kd with HLA-A*68:02 (setting [10]) and with HLA-A*02:06 (setting [10]) were 136 nM and 3.16 nM, respectively.

As for PENITTAVK, the IC50 (in general, the concentration that gives 50% inhibition) with HLA-A*11:01 [5] is at least 178000 nM.

Turning to TLTSDDLLI, the Kd in the assay with HLA-A*02:01 (source organism: Lassa virus Josiah) is 4170 nM.

Turning to GIAACLMTY, the results for the dissociation constant (Kd) in the assay with HLA-A*03:01 [1] (source organism: Escherichia coli F11) and with HLA-B*15:01 were at least 20000 nM and 3000 nM, respectively.

With LMWKQITPEL, the Kd in the assay with HLA-B*08:01 [2] (setting [8]) stood at 1230 nM.

For the sequence MQSLKFNRA, in the assay with HLA-B*08:01 [2] (setting [7]), the Kd was determined as 307 nM.

On to MLINRFTMR, for which the equilibrium dissociation constant (Kd) came out at 4.29 nM with HLA-A*31:01; 20.4 nM with HLA-A*33:01; 906 nM with HLA-B*08:01 [2] (source organism: Dengue virus 2 Peru/IQT2913/1996); 57 nM with HLA-A*03:01 [6]; 17.7 nM with HLA-A*68:01.

Consider LLGLWGFATA, for which the Kd was 50.5 nM with HLA-A*02:02 (setting [11]); at least 49600 nM with HLA-A*68:02 (setting [11]); 65.1 nM in the assay with HLA-A*02:01 (setting [11]); 61.3 nM with HLA-A*02:06 (setting [11]); 1.89 nM with HLA-A*02:03.

Regarding SLNRNFTLV, the Kd with HLA-A*02:02 (setting [11]) is 0.143 nM; with HLA-A*68:02 (setting [11]) it was 227 nM; with HLA-A*02:01 (setting [11]) it was 23.6 nM; with HLA-A*02:06 (setting [11]) it was 0.69 nM; with HLA-A*02:03 it was 0.0957 nM.

Turning to HALNELPESL, the Kd in the assay with HLA-B*08:01 [2] (setting [12]) turned out to be 3740 nM.

With RVSRPTTVV, the Kd in the assay with HLA-A*02:02 (setting [11]) was determined as 6200 nM; with HLA-A*68:02 (setting [11]), 200 nM; in the assay with HLA-A*02:06 (setting [11]), 1340 nM; in the assay with HLA-A*02:03 it was 105 nM.

LSNTTGRLI came in with a half-inhibitory concentration (IC50) with HLA-A*11:01 [5] of 55500 nM.

On to RAAGLQDCT, for which the Kd with HLA-A*02:01 (source organism: Hepatitis C virus (isolate 1)) was at least 50000 nM.

On to LVMLLVHYAI, for which the values for the dissociation constant Kd with HLA-A*68:02 (setting [12]) and with HLA-A*02:06 (setting [12]) were 1260 nM and 151 nM, respectively.

Turning to PRRCLKPVIL, the Kd with HLA-B*08:01 [2] (setting [10]) amounted to 2720 nM.

Consider RKNGKKVIQL, for which the Kd in the assay with HLA-B*08:01 [2] (setting [8]) came to 161 nM.
